Numbered stars: 1 amine (or outer) side, 2 acyl side, 3 side chain; on linkers, the order of the positions; unused ones are H or OH. Bridge positions count the residues as written; N and C are the ends. Square brackets hold non-standard residues; d marks the D form. Ends that are not written are not given here. Peptide text beside a SMILES is read from it. Tpi = O=C(O)[C@@H]1Cc2c([nH]c3ccccc23)CN1; TBMB = c1c(C[*:1])cc(C[*:3])cc1C[*:2]; 3Pal = N[C@@H](Cc1cccnc1)C(=O)O
Experiments:
[1] = Plasma stability profiling method 1 (35% plasma, MALDI-TOF, qualitative); assay type: in vitro ADME, rat; conditions: 35% rat plasma, 37 deg C, method 1, comparative estimate
Procedure: Three methods were employed to assess the stability of bicycles (peptides conjugated to molecular scaffolds) in plasma.
A rapid plasma stability profiling assay was developed that employed mass spectrometric detection (MALDI-TOF, Voyager DE, Applied Biosystems) of the parent mass, until the time when the parent peptide mass was no longer observable. Specifically, 200 uM of peptide was incubated in the presence of 35% rat or human plasma (Sera labs, using citrate as anticoagulant) at 37 deg C., which was supplemented with 1×PBS (derived from a 10×PBS Stock, Sigma). At various time points (i.e. t=0, 3, 24 hrs, henceafter daily up to 10 days), 2 uL of sample was added to 18 uL of 30 mM ammonium bicarbonate in a 1:1 mixture of acetonitrile:H2O. Samples were frozen at −80 deg C. until the time of analysis. For mass spectrometric analysis that determines the approximate detection window of the peptide, the acetonitrile:H2O-diluted sample of a given time point was spotted directly (0.7 uL) onto the MALDI plate. Matrix (alpha-cyanocinnamic acid, Sigma, prepared as a saturated solution in 1:1 acetonitrile:water containing 0.1% trifluoroacetic acid) was layered over the sample (1 uL). At a similar laser intensity setting on the MALDI TOF, the time could then be determined until parent peptide was no longer detectable. It should be noted that this is a qualitative assay serves to detect relative changes in plasma stability.

[2] = biological target: biotinylated human plasma Kallikrein (Homo sapiens, UniProt P03952); assay: Phage binding assay of individual clones, randomisation of peptide domains
Excerpt: Library construction: Small phage libraries were generated according to the methods of Heinis et al as described in ‘Cloning of phage libraries’ above. The sficx3ba primer was modified such that the bicycle-encoding portion was based on a parent 5×5 bicycle (5×5: two 5-residue loops) DNA sequence with only 4-6 codons randomized to NNS. The randomized codons were those encoding the peptide domain/motif of interest.
Assay of binding of individual clones: Library transformant colonies, or selection output colonies, were picked and grown as individual cultures in 2TY broth containing selective antibiotic. The picked colonies were DNA-sequenced using a QIAgen PyroMark Q96 DNA sequencer to reveal the amino-acid substitution present in each clone, and were assayed for human plasma Kallikrein binding as follows. The phage-containing supernatant was harvested from the culture and phage were cyclised with tris bromomethyl benzene(TBMB) based on the methods of Heinis et al (Nature Chemical Biology vol. 5 pp 502-507 (2009)). The purified phage from this process were assayed for binding to biotinylated human plasma Kallikrein using a homogeneous plate-based binding assay; assay read-out measured on a BMG Labtech Pherastar FS plate reader. The quantitative binding data from duplicate assay samples was averaged (mean) and expressed as signal:background. Assay data shown is representative of at least 2 independent experiments. The assay data was correlated with the peptide sequences.
The WPAR (SEQ ID NO: 18) motif identified from Example 1 was analysed in the context of the 06-34-03 peptide, in order to identify alternatives or improvements to the WPAR (SEQ ID NO: 18) motif. A library was constructed where positions 1, 6, 7, 8, 9 &10 of 06-34-03 were fixed and positions 2, 3, 4 & 5 were randomised (see ‘Randomisation of peptide domains—Library construction’ in Methods above). Selections against human plasma Kallikrein were performed at a variety of stringencies (see Phage selections' in Methods above). All output sequences were identified and analysed for target binding (see ‘Randomisation of peptide domains—Assay of binding of individual clones’ in Methods above). Table 17 lists each unique sequence, its relative abundance in the selection output (frequency), and a rank number according to target binding strength.
Selections against human plasma Kallikrein were performed with this library in order to study the non-WPAR (SEQ ID NO: 18) determinants of Kallikrein binding, and to isolate the optimal WPAR (SEQ ID NO: 18)-containing peptide sequence. Over 150 selection output sequences were isolated and screened for binding to human plasma Kallikrein (as described in Methods above). The sequences were ranked in order of Kallikrein binding and the top 50 sequences were aligned in Table 19. […]

Biotinylated hPK = biological target: T1, Biotinylated hPK (Homo sapiens, UniProt P03952); assay: Phage selections, abundance of sequences in selection outputs; assay type: binding; conditions: for Frequency (relative abundance in the total selection outputs): randomised WPAR motif at positions 2, 3, 4 & 5 within the 06-34-03 sequence
T1 construct: IHPKA, from human plasma; purchased Innovative Research, Novi, MI, USA IHPKA; host or cells: human plasma

[3] = randomised WPAR motif at positions 2, 3, 4 & 5 within the 06-34-03 sequence, 1 = best binding
[4] = WPAR domain fixed, positions 1, 6, 7, 8, 9 & 10 randomised, top 50

T1 sequence (P03952 20-638): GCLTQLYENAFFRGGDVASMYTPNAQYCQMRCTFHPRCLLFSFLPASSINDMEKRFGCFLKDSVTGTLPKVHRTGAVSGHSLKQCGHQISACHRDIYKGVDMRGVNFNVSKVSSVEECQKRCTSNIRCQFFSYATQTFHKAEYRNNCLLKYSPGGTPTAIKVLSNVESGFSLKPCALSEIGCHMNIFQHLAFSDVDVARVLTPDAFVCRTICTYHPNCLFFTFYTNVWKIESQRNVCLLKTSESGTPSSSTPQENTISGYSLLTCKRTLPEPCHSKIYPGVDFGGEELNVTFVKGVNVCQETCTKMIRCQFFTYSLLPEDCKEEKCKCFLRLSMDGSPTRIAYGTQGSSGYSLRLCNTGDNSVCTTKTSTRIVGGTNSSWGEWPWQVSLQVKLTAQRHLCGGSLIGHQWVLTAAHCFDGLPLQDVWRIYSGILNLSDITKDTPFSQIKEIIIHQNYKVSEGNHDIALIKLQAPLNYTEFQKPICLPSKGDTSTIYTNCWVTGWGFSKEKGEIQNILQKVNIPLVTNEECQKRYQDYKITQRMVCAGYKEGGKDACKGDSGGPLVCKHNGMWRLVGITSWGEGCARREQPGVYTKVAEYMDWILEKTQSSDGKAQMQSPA
biotinylated human plasma Kallikrein, sequence (P03952 20-638): as above

Molecule | Rank (sequences ranked according to Kallikrein binding) [2, 3] | Frequency (relative abundance in the total selection outputs) (Biotinylated hPK) | Rank (sequences ranked according to Kallikrein binding) [2, 4] | also measured
CC(=O)N[C@H]1CSCc2cc3cc(c2)CSC[C@H](NC(=O)[C@H](CCCNC(=N)N)NC(=O)[C@H](C)NC(=O)[C@@H]2CCCN2C(=O)[C@H](Cc2cccnc2)NC(=O)[C@H](CO)NC1=O)C(=O)N[C@@H](CC(C)C)C(=O)N[C@@H](Cc1c[nH]cn1)C(=O)N[C@@H](CCC(N)=O)C(=O)N[C@@H](CC(=O)O)C(=O)N[C@@H](CC(C)C)C(=O)N[C@H](C(N)=O)CSC3 [Ac-(06-34-18) 3Pal2] (Ac-CS[3Pal]PARCLHQDLC-NH2; linker 1-7-13 via TBMB) |  |  |  | Observable in rat plasma, for days [1]: 2 days
SEQ ID NO: 84 (CSFPFRCTHQDLC; Synthetic sequence Kallikrein binder identified from selections using a randomised WPAR motif at positions 2, 3, 4 & 5 within the 06-34-03 sequence of PCT/EP2012/069898 (SEQ ID NO 58)) | 12 | 2 |  | 
CC(=O)N[C@H]1CSCc2cc3cc(c2)CSC[C@H](NC(=O)[C@H](CCCNC(=N)N)NC(=O)[C@H](C)NC(=O)[C@@H]2Cc4c([nH]c5ccccc45)CN2C(=O)[C@H](Cc2c[nH]c4ccccc24)NC(=O)[C@H](CO)NC1=O)C(=O)N[C@@H](CC(C)C)C(=O)N[C@@H](Cc1c[nH]cn1)C(=O)N[C@@H](CCC(N)=O)C(=O)N[C@@H](CC(=O)O)C(=O)N[C@@H](CC(C)C)C(=O)N[C@H](C(N)=O)CSC3 [Ac-(06-34-18) NorHar3] (Ac-CSW[Tpi]ARCLHQDLC-NH2; linker 1-7-13 via TBMB) |  |  |  | Observable in rat plasma, for days [1]: 2 days
SEQ ID NO: 85 (CSLPFRCTHQDLC; Synthetic sequence Kallikrein binder identified from selections using a randomised WPAR motif at positions 2, 3, 4 & 5 within the 06-34-03 sequence of PCT/EP2012/069898 (SEQ ID NO 58)) | 13 | 3 |  | 
WPAR: phage clone: WPAR at positions 2-5 within the 06-34-03 sequence, TBMB-cyclised (also: TBMB-cyclised within the 06-34-03 context, the cysteines lie outside this motif) |  |  |  | Kallikrein binding in target binding assay [2]: optimal sequence for Kallikrein binding; Relative abundance of motif in selection output (Biotinylated hPK; 2nd stringency from High (1st value of cell)): 19%; Relative abundance of motif in selection output (Biotinylated hPK; 3rd stringency from High (2nd value of cell)): 13%; Relative abundance of motif in selection output (Biotinylated hPK; 4th stringency from High (3rd value of cell)): 22%; Relative abundance of motif in selection output (Biotinylated hPK; 5th stringency from High (4th value of cell)): 6%; Relative abundance of motif in selection output (Biotinylated hPK; stringency High): 17%; Relative abundance of motif in selection output (Biotinylated hPK; stringency LOW): 4%
SEQ ID NO: 92 (CSLPFKCTHQDLC; Synthetic sequence Kallikrein binder identified from selections using a randomised WPAR motif at positions 2, 3, 4 & 5 within the 06-34-03 sequence of PCT/EP2012/069898 (SEQ ID NO 58)) | 20 | 1 |  | 
SEQ ID NO: 88 (CSLPFKCTHQDLC; Synthetic sequence Kallikrein binder identified from selections using a randomised WPAR motif at positions 2, 3, 4 & 5 within the 06-34-03 sequence of PCT/EP2012/069898 (SEQ ID NO 58)) | 16 | 1 |  | 
SEQ ID NO: 75 (CSFPFRCTHQDLC; Synthetic sequence Kallikrein binder identified from selections using a randomised WPAR motif at positions 2, 3, 4 & 5 within the 06-34-03 sequence of PCT/EP2012/069898 (SEQ ID NO 58)) | 3 | 17 |  | 
SEQ ID NO: 152 (CDWPARCMHQEFC; Synthetic sequence Kallikrein binder containing a WPAR motif) |  |  | 39 | 
SEQ ID NO: 89 (CSLPFRCTHQDLC; Synthetic sequence Kallikrein binder identified from selections using a randomised WPAR motif at positions 2, 3, 4 & 5 within the 06-34-03 sequence of PCT/EP2012/069898 (SEQ ID NO 58)) | 17 | 4 |  | 
SEQ ID NO: 97 (CSLPFRCTHQDLC; Synthetic sequence Kallikrein binder identified from selections using a randomised WPAR motif at positions 2, 3, 4 & 5 within the 06-34-03 sequence of PCT/EP2012/069898 (SEQ ID NO 58)) | 25 | 2 |  | 
SEQ ID NO: 127 (CAWPARCTHVDLC; Synthetic sequence Kallikrein binder containing a WPAR motif) |  |  | 14 | 
SEQ ID NO: 158 (CSWPARCTHAEMC; Synthetic sequence Kallikrein binder containing a WPAR motif) |  |  | 45 | 
SEQ ID NO: 135 (CQWPARCMHQELC; Synthetic sequence Kallikrein binder containing a WPAR motif) |  |  | 22 | 
SEQ ID NO: 130 (CAWPARCTHADLC; Synthetic sequence Kallikrein binder containing a WPAR motif) |  |  | 17 | 
SEQ ID NO: 120 (CAWPARCTHTDLC; Synthetic sequence Kallikrein binder containing a WPAR motif) |  |  | 7 | 
SEQ ID NO: 131 (CQWPARCMHQDMC; Synthetic sequence Kallikrein binder containing a WPAR motif) |  |  | 18 | 
SEQ ID NO: 163 (CPWPARCLHTDLC; Synthetic sequence Kallikrein binder containing a WPAR motif) |  |  | 50 | 
SEQ ID NO: 154 (CTWPARCLHQHMC; Synthetic sequence Kallikrein binder containing a WPAR motif) |  |  | 41 | 
SEQ ID NO: 208 (CSWPARCTHQDLC; Synthetic sequence 06-34-03) |  |  | 2 | 
SEQ ID NO: 150 (CAWPARCLHADMC; Synthetic sequence Kallikrein binder containing a WPAR motif) |  |  | 37 | 
SEQ ID NO: 148 (CTWPARCTHTDMC; Synthetic sequence Kallikrein binder containing a WPAR motif) |  |  | 35 | 
